The values that follow come from PMC2919722.

What all share (assay): EMSA
(In general: In EMSA bound probe runs differently from free probe, usually more slowly.)

For one data set, the target named is T1, MBD1 CXXC3 (UniProt Q9UIS9-5 252-344).
T1 sequence: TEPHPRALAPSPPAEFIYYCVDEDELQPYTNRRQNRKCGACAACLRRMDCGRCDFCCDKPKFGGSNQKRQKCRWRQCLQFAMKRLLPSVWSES

Data set [1] has as its target T2, GST-MBD1 MBD (1-161) (UniProt Q9UIS9 1-161).
T2 sequence: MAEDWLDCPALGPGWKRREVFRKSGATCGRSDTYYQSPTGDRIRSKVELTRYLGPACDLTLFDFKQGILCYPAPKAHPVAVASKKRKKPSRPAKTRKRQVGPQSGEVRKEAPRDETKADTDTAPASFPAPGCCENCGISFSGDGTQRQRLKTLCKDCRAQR

For data set [2], the target named is T2, GST-MBD1 MBD (1-161). This is another data set of the same source.
Data set [3] addresses T2, GST-MBD1 MBD (1-161). This is another data set of the same source.
In data set [4] the target is T2, GST-MBD1 MBD (1-161). This is another data set of the same source.
The target in data set [5] is T2, GST-MBD1 MBD (1-161). This is another data set of the same source.

Changes are numbered by the printed parent chain. Read-outs that look alike come from different tables or passages of the source.

B1: CCGT, unmethylated (dsDNA)
DNA 1: ACATGCCTCATGCCGTACTTAACTGCAGCT
DNA 2: AGCTGCAGTTAAGTACGGCATGAGGCATGT
For B1, the binding result with MBD1 CXXC3 is reported as “binds”.

B2: CCGG, unmethylated (dsDNA)
DNA 1: B1 DNA 1 with T16G
DNA 2: B1 DNA 2 with A15C
In the case of B2, the binding result with MBD1 CXXC3 is “binds”.

B3: TTmCGCA, methylated (dsDNA)
DNA 1: B1 DNA 1 with G12T, C13T, T16C
DNA 2: B1 DNA 2 with A15G, G18A, C19A
modifications: 5mC at CpG, both strands (implied)
Take B3: in the data set with GST-MBD1 MBD (1-161) [1], the binding result is “binds”.

B4: ACGG, unmethylated (dsDNA)
DNA 1: B1 DNA 1 with C13A, T16G
DNA 2: B1 DNA 2 with A15C, G18T
For B4, in the data set with MBD1 CXXC3, the binding result is on record as “binds”.

B5: TmCGG, methylated (dsDNA)
DNA 1: B1 DNA 1 with C13T, T16G
DNA 2: B1 DNA 2 with A15C, G18A
modifications: 5mC at CpG, both strands (implied)
B5: in the data set with GST-MBD1 MBD (1-161) [2], the binding result was “binds”.

B6: TGmCGCA, methylated (dsDNA)
DNA 1: B1 DNA 1 with G12T, C13G, T16C
DNA 2: B1 DNA 2 with A15G, G18C, C19A
modifications: 5mC at CpG, both strands (implied)
With B6, the binding result with GST-MBD1 MBD (1-161) [3] is “binds”.

B7: CmCGC, methylated (dsDNA)
DNA 1: B1 DNA 1 with T16C
DNA 2: B1 DNA 2 with A15G
modifications: 5mC at CpG, both strands (implied)
Take B7: in the data set with GST-MBD1 MBD (1-161) [4], the binding result is given as “binds”.

B8: CCGA, unmethylated (dsDNA)
DNA 1: B1 DNA 1 with T16A
DNA 2: B1 DNA 2 with A15T
Regarding B8, the binding result in the data set with MBD1 CXXC3 is “binds”.

B9: CCGC, unmethylated (dsDNA)
DNA 1: B1 DNA 1 with T16C
DNA 2: B1 DNA 2 with A15G
As to B9, the binding result in the data set with MBD1 CXXC3 was “binds”.

B10: TCGG, unmethylated (dsDNA)
DNA 1: B1 DNA 1 with C13T, T16G
DNA 2: B1 DNA 2 with A15C, G18A
Turning to B10, in the data set with MBD1 CXXC3, the binding result is reported as “binds”.

B11: A/T run mutated, methylated (dsDNA)
DNA 1: B1 DNA 1 with T16G, T20C, A21G
DNA 2: B1 DNA 2 with T10C, A11G, A15C
modifications: 5mC at C14 and opposite strand CpG (implied)
For the molecule B11, in the data set with GST-MBD1 MBD (1-161) [5], the binding result is given as “binds”.

B12: GCGG, unmethylated (dsDNA)
DNA 1: B1 DNA 1 with C13G, T16G
DNA 2: B1 DNA 2 with A15C, G18C
For the molecule B12, the binding result in the data set with MBD1 CXXC3 was “binds”.
